According to the PETadex activity labels (doi:10.1016/j.ijbiomac.2025.149745):
Changes are numbered by the printed parent chain.

B1: unnamed (protein)
chain: MDGVLWRVRTAALMAALLALAAWALWASPSVEAQSNPYQRGPNPTRSALTADGPFSVATYTVSRLSVSGFGGVIYYPTGTSLTFGGIAMSPGYTADASSLAWLGRRLASHGFVVLVINTNSRFDYPDSRASQLSAALNYLRTSSPSAVRARLDANRLAVAGHSMGGGGTLRIAEQNPSLKAAVPLTPWHTDKTFNTSVPVLIVGCEADTVAPVSQHAIPFYQNLPSTTPKVYVELDNASHFCPNSNNAAISVYTISWMKLWVDNDTRYRQFLCNVNDPALSDFRTNNRHCQCQ
B2: unnamed (protein)
chain: B1 chain with F241S
B3: unnamed (protein)
chain: MNFPRASRLMQAAVLGGLMAVSAAATAQTNPYARGPNPTAASLEASAGPFTVRSFTVSRPSGYGAGTVYYPTNAGGTVGAIAIVPGYTARQSSIKWWGPRLASHGFVVITIDTNSTLDQPSSRSSQQMAALRQVASLNGTSSSPIYGKVDTARMGVMGHSMGGGGSLISAANNPSLKAAAPQAPWDSSTNFSSVTVPTLIFAAENDSIAPVNSSALPIYDSMSRNAKQFLEINGGSHFAANSGNSNQALIGKKGVAWMKRFMDNDTRYSTFACENPNSTRVSDFRTANCS
B4: unnamed (protein)
chain: B3 chain with H159W, F238S
B5: unnamed (protein)
chain: B3 chain with H159W, A203C, A239C
B6: unnamed (protein)
chain: B3 chain with A203C, F238S, A239C

Columns and labels:
PEF [1] = experiment: Proxy for plastic degradation [kcat] (s⁻¹); conditions: pH 9
PET [2] = experiment: Proxy for plastic degradation [kcat] (s⁻¹); conditions: pH 9
[3] = Proxy for plastic degradation [melting temperature]; conditions: pH 7
pNPB [4] = experiment: Proxy for plastic degradation [kcat/Km (catalytic efficiency)] (mM⁻¹s⁻¹); conditions: pH 7
pNPB [5] = experiment: Proxy for plastic degradation [PET preference ratio] (% relative activity); conditions: pH 7
PEF [6] = experiment: Proxy for plastic degradation [Released monomer concentration (HPLC/LC-MS) (FDCA + MHEF)] (s⁻¹); conditions: pH 9
PET [7] = experiment: Proxy for plastic degradation [Released monomer concentration (HPLC/LC-MS) (TPA+MHET+BHET)] (s⁻¹); conditions: pH 9

Row | Protein | Proxy for plastic degradation (PEF [1]) | Proxy for plastic degradation (PET [2]) | Proxy for plastic degradation [3] [°C] | Proxy for plastic degradation (pNPB [4]) | Proxy for plastic degradation (pNPB [5]) | Proxy for plastic degradation (PEF [6]) | Proxy for plastic degradation (PET [7])
1 | B1 | 0.004 | 0.0031 | 82 | 335 | – | – | –
2 | B2 | 0.115 | 0.03 | 83 | 125 | 0 | – | –
3 | B3 | 0 | 0 | 39.5 | 2.1 | 0 | 0 | 0
4 | B4 | 0 | 0 | 40.4 | 0 | 0 | 0 | 0
5 | B5 | 0.35 | 0.035 | 48.5 | 3.3 | – | 0.35 | 0.037
6 | B6 | 0.17 | 0.03 | 48 | 45.8 | – | 0.2 | 0.03
